Article PMC5606850, “Acidic C-terminal domains autoregulate the RNA chaperone Hfq” (eLife, 2017)

System: RNA molecular beacon and Target RNA
Assay: RNA annealing kinetics (molecular beacon and Target RNAs), stopped-flow fluorescence
Assay type: biochemical
Details: 30 °C
Experimental: Figure 2. CTD and RNA occupy the same rim binding site. […] The CTD linker is shown in purple, the acidic tip in red and the N-terminal FITC as a yellow star. Hfq core is shown in cyan, with basic rim patches in dark blue. […] (C) Reaction scheme for annealing an RNA molecular beacon to a target RNA (open bar) ([Hopkins et al., 2011]; [Panja et al., 2015]). (D) Progress curves for annealing 50 nM molecular beacon and 100 nM Target by 50 nM Hfq65 hexamer at 30°C, measured by stopped-flow fluorescence. See Figure 2—figure supplement 3 for further data. (E) Contribution of core residues to CTD binding. Interaction energy (Expected Energetic Contribution; EEC) in silico for a core residue in the Rosetta models (solid symbols and solid line; adjusted R^2 = 0.77) or the average annealing rates for Target and Target-A18 relative to Hfq65 (open symbols and dashed line; adjusted R^2 = 0.94) versus experimental CTD binding energy (∆∆G°) for each Hfq65 variant. The binding energy, ∆∆G° = –RTln(Kd^MUT/Kd), reflects the perturbation to CTD binding by a mutation in Hfq65. The interaction energy in silico or EEC is defined as the average energy of a tail–core interaction multiplied by the average number of tail–core interactions per model (Figure 1B, top and Equation 3). The relative annealing rate for Hfq65 variants, krel = kobs^MUT/kobs^WT, is <1 if the mutated residue is important for RNA annealing. Figure 2—figure supplement 1. SDS-PAGE of purified Hfq variants. […] Annealing of 100 nM Target RNA to 50 nM beacon RNA by Hfq65 and Hfq65 variants was measured by stopped flow fluorescence at 30°C in 1 × TNK buffer. […] The change in fluorescence emission intensity was normalized to the maximum fluorescence within an experiment. […]
To determine how much core residues that bind the CTD contribute to Hfq’s RNA annealing activity, we compared the effect of rim mutations on the rate of base pairing between an RNA molecular beacon and the 16 nt Target RNA by stopped-flow fluorescence spectroscopy (Figure 2C) ([Hopkins et al., 2011]). […]

| Substance | activity in single-turnover annealing assays (50 nM beacon, 100 nM Target RNA, 0–200 nM Hfq hexamer) | observed annealing rate of Hfq65 rim mutants (50 nM molecular beacon, 100 nM Target, Hfq65 variants, TNK buffer) |
| --- | --- | --- |
| Hfq65: truncated E. coli Hfq variant lacking the CTD | highly active |  |
| Hfq65-R16A |  | most diminished |
